Measured values as given in patent US20070207507A1.
Bridges are numbered along the chain shown (N, C = ends). Where no end group is shown, it is not given here.

B1: phage clone A3-21 (f88-4/Cys6 phage displaying a 16 mer cysteine-constrained peptide in pVIII) (peptide)
peptide: LKNYCRKCSNRCTPTG
modifications: disulfide (positions not given here); also: displayed on phage, cysteine-constrained, 99mTc-labelled
B2: phage clone A3-19 (f88-4/Cys6 phage displaying a 16 mer cysteine-constrained peptide in pVIII) (peptide)
peptide: NLIWCRKEFARCTSDM
modifications: disulfide 5-12 (inferred); also: displayed on phage, cysteine-constrained, 99mTc-labelled
B3: phage clone A3-10 (f88-4/Cys6 phage displaying a 16 mer cysteine-constrained peptide in pVIII) (peptide)
peptide: NPGTCKDKWIECLLNG
modifications: disulfide 5-12 (inferred); also: displayed on phage, cysteine-constrained, 99mTc-labelled in binding assays
B4: control phage clone A3-12 (f88-4/Cys6 phage displaying a 16 mer cysteine-constrained peptide in pVIII) (peptide)
peptide: MNYYCHQTTKTCRTHS
modifications: disulfide 5-12 (inferred); also: displayed on phage, cysteine-constrained, 99mTc-labelled

Legend:
[1] = target: myeloperoxidase; experiment: 99mTc-phage incubated with 125I-myeloperoxidase, separated on a spin column / Sepharose 6B column
Sequence of myeloperoxidase (P05164 165-745): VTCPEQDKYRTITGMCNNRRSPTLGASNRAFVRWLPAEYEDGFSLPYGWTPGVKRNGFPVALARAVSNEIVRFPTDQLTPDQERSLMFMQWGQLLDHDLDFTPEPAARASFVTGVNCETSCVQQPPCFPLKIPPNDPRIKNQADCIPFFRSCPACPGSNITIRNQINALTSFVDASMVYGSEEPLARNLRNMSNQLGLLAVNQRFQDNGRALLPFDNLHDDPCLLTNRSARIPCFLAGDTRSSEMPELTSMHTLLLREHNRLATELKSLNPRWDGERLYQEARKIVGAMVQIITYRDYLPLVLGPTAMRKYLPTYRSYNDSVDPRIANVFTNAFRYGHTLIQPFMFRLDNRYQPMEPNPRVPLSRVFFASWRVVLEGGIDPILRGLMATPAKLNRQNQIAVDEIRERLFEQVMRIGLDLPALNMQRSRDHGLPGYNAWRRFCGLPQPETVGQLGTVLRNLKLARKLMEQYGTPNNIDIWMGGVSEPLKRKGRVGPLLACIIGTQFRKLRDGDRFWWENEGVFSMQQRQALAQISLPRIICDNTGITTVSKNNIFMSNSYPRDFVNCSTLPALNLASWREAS

[2] = target: TAG-72; experiment: 99mTc-labeled phage on LS-174T colon cancer cells expressing TAG-72
[3] = target: myeloperoxidase; experiment: SPR (Biacore 1000), biotinylated myeloperoxidase on a streptavidin chip, peptide at 1 uM, fitted curve
[4] = target: myeloperoxidase; experiment: SE-HPLC on a Superose-12 column, 2 hours incubation
[5] = target: myeloperoxidase; experiment: SE-HPLC on a Superose-12 column, 5 min incubation

Binder	Relative Binding (% bound after subtraction of control phage MPO-4) [1]	Relative Binding (fold over control phage A3-12) [2]	also measured
TVMLCNPMEQGCRWMC (disulfide 5-12; also: phage labelled with 99mTc via MAG3) [phage clone MPO-15 (f88-4/Cys6 phage displaying a 16 mer cysteine-constrained peptide in pVIII)]	4.5%	–	–
B1	–	1 fold	–
B2	–	1.5 fold	–
RSGQCHDDTWNCLACVGGSGGGC (also: cysteine-constrained, Cys pairing not given here) [MPO-17 twenty-three mer synthetic polypeptide]	–	–	Kd [3]: 900 nM; UV peak for the enzyme, % of total protein after 2 hours incubation (% of total protein) [4]: 46; UV peak for the enzyme, % of total protein at 5 min of incubation (% of total protein) [5]: 16
B3	–	4.3 fold	–
B4	–	–	Relative Binding (the control phage, the reference itself) [2]: 1 fold
RSGQCHDDTWNCLACV (disulfide 5-12; also: phage labelled with 99mTc via MAG3) [phage clone MPO-17 (f88-4/Cys6 phage displaying a 16 mer cysteine-constrained peptide in pVIII)]	8%	–	–
AMPVCSLDRKACTAYQ (disulfide 5-12; also: phage labelled with 99mTc via MAG3) [phage clone MPO-1 (f88-4/Cys6 phage displaying a 16 mer cysteine-constrained peptide in pVIII)]	3.9%	–	–
HVLGCSYATNSCAHNA (disulfide 5-12; also: phage labelled with 99mTc via MAG3) [phage clone MPO-6 (f88-4/Cys6 phage displaying a 16 mer cysteine-constrained peptide in pVIII)]	5.8%	–	–
